Experimental data published in US20180280504A1, “GLYCAN-INTERACTING COMPOUNDS AND METHODS OF USE” (SIAMAB THERAPEUTICS, INC., priority 2014, published 2018).

How the values were obtained:
MDA-MD-231 STn− cells = assay: Fluorescence microscopy of ALEXA FLUOR 488-S3F binding and internalization, STn− cells; assay type: cell-based, human
Method: To analyze the internalization of antibodies by fluorescence microscopy, the following procedure was carried out. MDA-MD-231 STn− cells and MDA-MD-231 STn+ cells were cultured in Eagles minimum essential medium containing 10% fetal calf serum, 100 μg/ml penicillin, 100 UI/ml streptomycin, 45 μg/ml gentamycin, as well as 1 mg/ml G418 for STn+ cells. Cells were sub-cultured by treatment with Accutase buffer and seeded in microscope chamber slides at 10,000 cells/chamber in the case of STn− cells and 20,000 cells/chamber in the case of STn+ cells. All cells were cultured overnight at 37° C. Cells were subsequently incubated with either 1.5, 5 or 10 μg/ml S3F conjugated with ALEXA FLUOR® 488 dye (Thermo Fisher Scientific, Pittsburgh, Pa.) in complete media at 4° C. for 1 hour. Cells were then washed with ice-cold PBS in order to remove antibodies that were not bound to the cell surface. Complete media was then administered to each chamber and the cells were incubated at 37° C. for either 0, 15, 30 or 60 minutes in order to allow internalization of any surface-bound antibodies.
Following each time point, cells were washed twice with PBS in order to remove unbound antibodies. […] Cells were visualized the following day by analysis on a Nikon Eclipse Ti fluorescence microscope.

[1] = Immunohistochemical staining of normal and tumor tissues (TMA); conditions: tissue microarray slides
Method: The procedure for IHC staining includes the following steps: a). obtain tissue samples and prepare specimen slides; b). prepare tissue samples for IHC staining; i. perform antigen retrieval with Diva antigen retrieval solution for 30 minutes at 95° C.; or treat slides with 250 mU/mL neuraminidase in 50 mM sodium acetate, pH 5.5 for 2.5 hours at 37° C.; ii. rinse all treated slides twice with Tris-buffered saline auto-wash (TBS-AW); iii. apply Sniper protein block to all slides for 20 minutes to reduce non-specific binding and rinse twice in TBS-AW; c). perform antibody staining; i. incubate the pretreated slides with the primary antibody. For example, anti-STn antibody S3F is applied (10 or 30 ug/mL) for 60 minutes; ii. rinse twice in TBS-AW; iii. block endogenous peroxidase with peroxidase 1 for 10 minutes; iv. rinse twice with TBS-AW; v. incubate the slides with biotinylated goat anti-mouse IgG in DaVinci Green at 1:500 dilution for 30 minutes; vi. rinse twice with TBS-AW. d). develop the staining; i. add ABC Elite and incubate the slides for 30 minutes; ii. rinse twice with TBS-AW; iii. apply Sigma Fast DAB solution for 5 minutes followed by a rinse in distilled water; iv. counterstain and coverslip the slides for analysis. […]

[2] = E3-STn allograft model, pathological evaluation of H&E stained organs; assay type: in vivo, mouse; conditions: 5 treated mice
Method: At the end of the study described in Example 22, three mice from the vehicle control group and five mice that received 7G9-1A8 were chosen at random for post-study pathology assessment. Brain, colon, intestine, heart, kidney, liver, lung, mandibular salivary gland, pancreas, spleen, stomach, adrenal gland and thyroid gland organs were collected from each mouse. The organs were fixed in formalin (VWR; Radnor, Pa.) for about 48 hours, transferred to 70% ethanol (Sigma-Aldrich; St.Louis, Mo.), and then processed for standard H&E staining.
The H&E stained tissue slides were examined for pathology review. Liver sections from each animal had multifocal inflammation with or without concomitant hepatocellular necrosis. The histo-pathological changes were minimal to mild in severity. There was no appreciable difference in the morphology of lesions among vehicle control group mice and mice that received 7G9-1A8.

[3] = Glycan array, 9-O-acetylated GcSTn; assay type: binding; conditions: glycan microarray, Cy3 anti-mouse IgG
Method: Optimized glycan arrays comprise 71 chemically synthesized and well-defined glycans, most of which comprise Neu5Ac and Neu5Gc glycan pairs.
300 ml of epoxy blocking buffer is prepared by combining 15 ml of 2 M Tris buffer (pH 8) with 0.9 ml of 16.6 M ethanolamine and 284.1 ml of distilled water. The solution was brought to a final pH of 9.0 with HCl. The solution is filtered using a 0.2 μM nitrocellulose membrane. The epoxy buffer solution as well as 1 L of distilled water are pre-warmed to 50° C. Glass slides are arranged in a slide holder and quickly submerged in a staining tub with the warmed epoxy blocking buffer. Slides are incubated in the epoxy blocking buffer for 1 hour at 50° C. with periodic shaking to deactivate epoxy binding sites. Next, slides are rinsed and blocked with PBS with 1% OVA at 25° C. for one hour. Serum samples with polyclonal antibodies (1:1000) or purified monoclonal antibodies (1 ug/mL), are diluted in PBS with 1% OVA and added to the glycan array for one hour at 25° C. After extensive washing, binding of antibodies are detected by incubating glycan microarray slides with Cy3-conjugated anti-mouse IgG (Jackson Immunoresearch, West Grove, Pa.) for one hour. Slides are then washed extensively, dried and scanned with a Genepix 4000B scanner (Laser at 100%; gain at 350; 10 μm pixels). […]

B1: S3F: 3F1 variable domains combined with IgG2a constant domains; heavy chain SEQ ID NO: 63, light chain SEQ ID NO: 64 (antibody)
heavy: QVQLQQSDAELVKPGASVKISCKASGYTFTDHAIHWVKQKPEQGLDWIGYISPGNGDIKYNEKFKDKVTLTADKSSSTACMHLNSLTSEDSAVYFCKRSLLALDYWGQGTTLTVSSAKTTAPSVYPLAPVCGDTTGSSVTLGCLVKGYFPEPVTLTWNSGSLSSGVHTFPAVLQSDLYTLSSSVTVTSSTWPSQSITCNVAHPASSTKVDKKIEPRGPTIKPCPPCKCPAPNLLGGPSVFIFPPKIKDVLMISLSPIVTCVVVDVSEDDPDVQISWFVNNVEVHTAQTQTHREDYNSTLRVVSALPIQHQDWMSGKEFKCKVNNKDLPAPIERTISKPKGSVRAPQVYVLPPPEEEMTKKQVTLTCMVTDFMPEDIYVEWTNNGKTELNYKNTEPVLDSDGSYFMYSKLRVEKKNWVERNSYSCSVVHEGLHNHHTTKSFSRTPGK
light: DIVMTQSHKFMSTSVGDRVSITCKASQDVGTNIAWYQQKPGRSPKVLIYSASTRHTGVPDRFTGSGSGTDFTLTISNVQSEDLTDYFCQQYSSFPLTFGVGTKLELKRADAAPTVSIFPPSSEQLTSGGASVVCFLNNFYPKDINVKWKIDGSERQNGVLNSWTDQDSKDSTYSMSSTLTLTKDEYERHNSYTCEATHKTSTSPIVKSFNRNEC
Question: Which “internalization by STn− cells” value (MDA-MD-231 STn− cells; 37° C. 15-60 min, acid wash) does the source give for B1 here?
Answer: not efficiently internalized by STn− cells

Question: What about the “binding to the surface of STn− cells” value (MDA-MD-231 STn− cells; 488-S3F conjugate at 1.5, 5, 10 μg/ml, 4° C.) of the same molecule?
Answer: does not bind the surface of STn− cells

Question: What about the “IHC staining pattern, cancerous tissues” value [1] of the same molecule?
Answer: STn was present in most cancerous tissues

Question: And the “IHC staining pattern, normal tissues” value [1]?
Answer: STn expression was rare in normal tissues

B2: 7G9: anti-STn mouse monoclonal, IgG2b κ, from mouse #4407; VH SEQ ID NO: 12, VL SEQ ID NO: 9 (antibody, V domains shown)
VH: QVQLKESGPGLVAPSQNLSITCTVSGFSLTSYGVNWVRQPPGKGLEWLGVIWGDGSTNYHSALISRLIISKENSKSQVFLKLNSLQTNDTATYYCTKGFVYWGQGTLVTVSA
VL: QIVLTQSPAIMSASPGEKVTMTCSASSSVSYMHWYQQKSGTSPKRWIFDTSKLASGVPARFSGSGSGTSYSLTISSMEAEDAATYYCQQWSSNLLTFGAGTKLELK
Question: With B2 as the molecule, how does the epicardial inflammation [2] read?
Answer: not observed

Question: What about the “neutrophil aggregates in the muscularis mucosa of the stomach” value [2] of the same molecule?
Answer: not observed

Question: What about the “liver histopathology (multifocal inflammation, hepatocellular necrosis) vs vehicle control” value ([2]; 3 vehicle mice) of the same molecule?
Answer: no significant difference between the groups

B3: 18C7: anti-STn mouse monoclonal, IgG2c κ, from mouse #4436; VH SEQ ID NO: 4, VL SEQ ID NO: 5 (antibody, V domains shown)
VH: QVTLKESGPGILQPSQTLSLTCSFSGFSLSTFGMGVGWIRQPSGKGLEWLAHIWWDDDKYYNPALKSRLTISKDTSKNQVFLKIANVDTADTATYYCARIAYYYGSERDYWGQGTTLTVSS
VL: QIVLTQSPAIMSASPGEKVTMTCSASSSISYMHWYHQKPGTSPKRWIYDTSKLASGVPARFSGSGSGTSYSLTISSMEAEDAATYYCHQRSSYTFGGGTKLEIKR
Question: For B3, which “mean fluorescence intensity, Neu5,9Ac5Gc-α2,6-GalNAc” value [3] is on record?
Answer: about 2,000
